# From the supplement of paper PMC7877785
# ± gives the uncertainty stated by the source.
# Assay: self-splicing fitness, log relative to wild type (ln ratio); higher = more splicing; Tetrahymena group I intron in knt gene, E. coli kanamycin selection, DiMSum; sequences stand for … in CUCUCU…GGAGGGAAAAGUUAUCAGGCAUGCACCUGGUAGCUAGUCUUUAAACCAAUAGAUUGCAUCGGUUUAAAAGGCAAGACCGUCAAAUUGCGGGAAAGGGGUCAACAGCCGUUCAGUACCAAGUCUCAGGGGAAACUUUGAGAUGGCCUUGCAAAGGGUAUGGUAAUAAGCUGACGGACAUGGUCCUAACCACGCAGCCAAGUCCUAAGUCAACAGAUCUUCUGUUGAUAUGGAUGCAGUUCACAGACUAAAUGUCGGUCGGGGAAGAUGUAUUCUUCUCAUAAGAUAUAGUCGGACCUCUCCUUAAUGGGAGCUAGCGGAUGAAGUGAUGCAACACUGGAGCCGCUGGGAACUAAUUUGUAUGCGAAAGUAUAUUGAUUAGUUUUGGAGUACUCGUGGUCG
# Method in brief: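 A randomised library covering all eight P1ex-region intron nucleotides was built with the intron in the knt kanamycin-resistance gene on pET-22b(+) and held in E. coli BL21(DE3). Cells were grown overnight at 37°C or 30°C on LB agar, with or without 25 μg/mL kanamycin, plus 100 μg/mL carbenicillin, 50 μM IPTG and 0.2% rhamnose, and pooled colonies were amplicon-sequenced on an Illumina HiSeq 2500. DiMSum fitness is the error-weighted combination of wild-type-normalised replicate fold changes, kanamycin versus none.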
Sequence,self-splicing fitness (ln) (37 °C),self-splicing fitness (ln) (30 °C)
CUAUAGCAAUAUUACGCCAA,-1.68 ± 0.49,–
UCGAAGCAAUAUUACGGAGC,-1.75 ± 0.33,–
CAGCAGCAAUAUUACGGAAU,-1.95 ± 0.16,-4.16 ± 0.24
CCACAGCAAUAUUACGAUGU,-1.89 ± 0.15,-4.02 ± 0.24
GGUCAGCAAUAUUACGCUGA,-1.95 ± 0.32,-3.21 ± 0.44
UGUGAGCAAUAUUACGCAUC,-2.15 ± 0.26,–
GCCCAGCAAUAUUACGAUGA,-0.287 ± 0.14,-2.14 ± 0.18
AUCAAGCAAUAUUACGAGAG,-1.76 ± 0.11,-3.32 ± 0.16
GUCAAGCAAUAUUACGGACG,-2.01 ± 0.13,-3.64 ± 0.27
CCUCAGCAAUAUUACGGGUA,-1.9 ± 0.14,-3.23 ± 0.18
GAAUAGCAAUAUUACGUCGG,-3.19 ± 0.2,-3.21 ± 0.12
UAGUAGCAAUAUUACGUGGU,-3.33 ± 0.19,-3.62 ± 0.18
CCCUAGCAAUAUUACGUGUU,-3.37 ± 0.17,-4.27 ± 0.18
GUUCAGCAAUAUUACGCGAU,-2.74 ± 0.24,-2.39 ± 0.13
GCGAAGCAAUAUUACGAUAA,-1.46 ± 0.2,-2.27 ± 0.15
UCAGAGCAAUAUUACGAGCC,-2.18 ± 0.4,–
UGAUAGCAAUAUUACGGUAC,-2.12 ± 0.42,–
AGCCAGCAAUAUUACGGCUU,-2.89 ± 0.21,-4.74 ± 0.41
GCGAAGCAAUAUUACGACCA,-0.159 ± 0.38,-0.945 ± 0.21
AAUCAGCAAUAUUACGAGCU,-0.226 ± 0.093,-0.908 ± 0.093
GCUCAGCAAUAUUACGACUC,0.646 ± 0.14,-0.0981 ± 0.14
GCAUAGCAAUAUUACGCCCC,0.692 ± 0.34,-0.129 ± 0.26
GACCAGCAAUAUUACGGACA,-0.496 ± 0.081,-0.345 ± 0.078
UGCGAGCAAUAUUACGUCCA,-0.499 ± 0.29,-0.227 ± 0.25
UGGCAGCAAUAUUACGAUUU,-0.484 ± 0.1,-1.66 ± 0.086

Sequence,self-splicing fitness (ln) (37 °C),self-splicing fitness (ln) (30 °C)
GACCAGCAAUAUUACGCGCU,-0.412 ± 0.12,-1.68 ± 0.12
UGCGAGCAAUAUUACGCACC,-2.72 ± 0.42,-3.32 ± 0.31
UGUUAGCAAUAUUACGUGCU,-1.51 ± 0.13,-1.95 ± 0.13
GGCGAGCAAUAUUACGUCUG,-2.53 ± 0.16,-4.26 ± 0.29
UGAGAGCAAUAUUACGACUU,-2.31 ± 0.18,-3.87 ± 0.22
GUAAAGCAAUAUUACGUUUA,-0.69 ± 0.11,-1.08 ± 0.077
GGACAGCAAUAUUACGACCG,-0.054 ± 0.27,-0.447 ± 0.16
ACUGAGCAAUAUUACGAAGC,-2.04 ± 0.46,–
UCGUAGCAAUAUUACGAAAA,-1.77 ± 0.46,-2.3 ± 0.36
UAUUAGCAAUAUUACGGUGC,-1.84 ± 0.23,-3.77 ± 0.3
AACCAGCAAUAUUACGCUUC,-2.3 ± 0.11,-4.25 ± 0.16
UAUAAGCAAUAUUACGGGAC,-2.76 ± 0.32,-4.01 ± 0.37
CCCCAGCAAUAUUACGACAC,-2.41 ± 0.36,-3.97 ± 0.43
GCUAAGCAAUAUUACGACAU,-0.156 ± 0.033,-0.734 ± 0.013
UGUUAGCAAUAUUACGUAUC,-0.937 ± 0.26,–
UAACAGCAAUAUUACGAGUU,-1.8 ± 0.12,-2.87 ± 0.11
GAAAAGCAAUAUUACGCGCU,-0.301 ± 0.11,-0.913 ± 0.11
UCUGAGCAAUAUUACGCUCG,-0.349 ± 0.23,-3.7 ± 0.37
ACGUAGCAAUAUUACGACCG,0.0549 ± 0.12,-0.218 ± 0.1
AGCAAGCAAUAUUACGCCUU,0.351 ± 0.11,-1.24 ± 0.1
CCCAAGCAAUAUUACGACGA,-1.49 ± 0.14,-2.93 ± 0.17
CGGUAGCAAUAUUACGUGAC,-2.73 ± 0.41,–
AGAUAGCAAUAUUACGUCGA,0.375 ± 0.13,-0.721 ± 0.13
UUGCAGCAAUAUUACGCCGU,-1.41 ± 0.3,-3.46 ± 0.36
CCGGAGCAAUAUUACGAAGU,-1.53 ± 0.23,-4.05 ± 0.26

Sequence,self-splicing fitness (ln) (37 °C),self-splicing fitness (ln) (30 °C)
CAUCAGCAAUAUUACGGGUA,-0.0764 ± 0.079,-0.63 ± 0.07
CGAUAGCAAUAUUACGAGAG,-2.66 ± 0.26,-2.05 ± 0.2
UGUUAGCAAUAUUACGACUG,0.167 ± 0.12,0.492 ± 0.095
AUUAAGCAAUAUUACGGCUC,0.244 ± 0.17,-0.973 ± 0.16
GGAAAGCAAUAUUACGAAAA,–,-1.04 ± 0.48
AUCGAGCAAUAUUACGACUU,-0.826 ± 0.19,-0.779 ± 0.15
CGGUAGCAAUAUUACGGGCC,–,-3.47 ± 0.36
AGCAAGCAAUAUUACGGCGU,0.0744 ± 0.1,-0.229 ± 0.078
GACCAGCAAUAUUACGCGUU,-2.54 ± 0.14,-3.49 ± 0.12
AUAGAGCAAUAUUACGGAAU,-1.24 ± 0.18,-1.26 ± 0.15
UGGGAGCAAUAUUACGAACG,-0.54 ± 0.16,-1.07 ± 0.1
UUUAAGCAAUAUUACGUCGU,-2.07 ± 0.32,-2.14 ± 0.21
CCAAAGCAAUAUUACGCUUG,-2.93 ± 0.2,-3.7 ± 0.18
AGGUAGCAAUAUUACGGCAG,-0.539 ± 0.033,-1.25 ± 0.015
UAAAAGCAAUAUUACGCUUU,-2.52 ± 0.3,-3.78 ± 0.23
GGCAAGCAAUAUUACGAGUC,-1.78 ± 0.13,-2.64 ± 0.12
UAGGAGCAAUAUUACGCUAG,-0.83 ± 0.19,-3.03 ± 0.19
CGAUAGCAAUAUUACGAAUU,-2.41 ± 0.21,-4.06 ± 0.3
UAAGAGCAAUAUUACGACGU,-1.88 ± 0.39,-2.32 ± 0.33
GCCUAGCAAUAUUACGACCG,-0.867 ± 0.39,-1.8 ± 0.34
GGCAAGCAAUAUUACGGGAU,-0.713 ± 0.089,-2.31 ± 0.086
CCGGAGCAAUAUUACGCCCA,-2.06 ± 0.43,-3.21 ± 0.32
GAAAAGCAAUAUUACGGGAG,-1.95 ± 0.086,-2.95 ± 0.097
GCCUAGCAAUAUUACGGACU,-0.221 ± 0.11,-1.01 ± 0.1
ACGCAGCAAUAUUACGUUAU,-2.12 ± 0.15,-3.13 ± 0.12

Sequence,self-splicing fitness (ln) (37 °C),self-splicing fitness (ln) (30 °C)
CUUCAGCAAUAUUACGCCUA,-2.38 ± 0.32,–
GCGAAGCAAUAUUACGACUC,0.367 ± 0.1,-0.212 ± 0.086
GGACAGCAAUAUUACGUGUA,-0.304 ± 0.085,-0.376 ± 0.078
AGUAAGCAAUAUUACGCCUG,-1.15 ± 0.12,-2.19 ± 0.12
CCAUAGCAAUAUUACGAGGU,-2.67 ± 0.23,-3.37 ± 0.26
AGCUAGCAAUAUUACGUAGA,-1.15 ± 0.14,-4.65 ± 0.32
GCUAAGCAAUAUUACGACCC,0.239 ± 0.14,-0.411 ± 0.11
UUGAAGCAAUAUUACGCUUA,-0.467 ± 0.093,-1.17 ± 0.083
GUCAAGCAAUAUUACGGAGG,-2.5 ± 0.25,–
UCUUAGCAAUAUUACGAUUG,-1.23 ± 0.18,-2.74 ± 0.22
CGACAGCAAUAUUACGGUCG,-2.48 ± 0.15,-3.33 ± 0.14
UCCUAGCAAUAUUACGCGAA,-1.67 ± 0.17,-2.24 ± 0.22
CCAAAGCAAUAUUACGUAGA,-2.55 ± 0.18,-3.5 ± 0.17
ACAGAGCAAUAUUACGAGGU,-2.66 ± 0.15,-3.36 ± 0.11
CCGAAGCAAUAUUACGUCCG,-0.429 ± 0.095,-0.46 ± 0.11
UUAGAGCAAUAUUACGCCAG,0.228 ± 0.23,-0.402 ± 0.15
GUGGAGCAAUAUUACGGGAA,-3.23 ± 0.35,-2.15 ± 0.28
CUACAGCAAUAUUACGGCCG,-0.0396 ± 0.11,-0.378 ± 0.091
UCCAAGCAAUAUUACGUCCU,-2.95 ± 0.43,-4.09 ± 0.31
CUGUAGCAAUAUUACGCCCA,-2.56 ± 0.27,-1.79 ± 0.28
UUGUAGCAAUAUUACGGGUA,-0.802 ± 0.099,-1.75 ± 0.094
UGGGAGCAAUAUUACGCGGC,-1.35 ± 0.28,-2.57 ± 0.34
UGUCAGCAAUAUUACGCAGG,-3.19 ± 0.26,-2.52 ± 0.2
GAUUAGCAAUAUUACGUGUC,-2.28 ± 0.26,-2.86 ± 0.27
